{
  "source": "patent US20220363770A1",
  "about": "(Amgen, published 2022)",
  "binders": {"B1": {"name": "iPS:454811 (bispecific antibody, human IgG1, kappa, lambda, N297G)", "light 1": "QSVLTQPPSVSAAPGQKVTISCSGSRSNIGIKAVSWYQQLPGTAPKLLIYDNNKRPSGIPDRFSGSKSGTSATLGITGLQTGDEADYYCGTWDSRLSAVVFGGGTKLTVLGQPKAAPSVTLFPPSSEELQANKATLVCLISDFYPGAVTVAWKADSSPVKAGVETTTPSKQSNNKYAAKSYLSLTPEQWKSHRSYSCQVTHEGSTVEKTVAPTECS", "heavy 1": "QVQLVESGGGVVQPGRSLRLSCAASGFTFSSFGMHWVRQAPGKGLEWVAVISFDGSIKYSVDSVKGRFTISRDNSKNTLFLQMNSLRAEDTAVYYCARDRLNYYESSGYYHYKYYGMAVWGQGTTVTVSSASTKGPSVFPLAPSSKSTSGGTAALGCLVKDYFPEPVTVSWNSGALTSGVHTFPAVLQSSGLYSLESVVTVPSSSLGTQTYICNVNHKPSNTKVDKKVEPKSCDKTHTCPPCPAPELLGGPSVFLFPPKPKDTLMISRTPEVTCVVVDVSHEDPEVKFNWYVDGVEVHNAKTKPCEEQYGSTYRCVSVLTVLHQDWLNGKEYKCKVSNKALPAPIEKTISKAKGQPREPQVYTLPPSRKKMTKNQVSLTCLVKGFYPSDIAVEWESNGQPENNYKTTPPVLKSDGSFFLYSKLTVDKSRWQQGNVFSCSVMHEALHNHYTQKSLSLSPGK", "light 2": "EIVLTQSPATLSLSPGERATLSCRASRAVSNLHWYQQKPGQAPRLLIKYASQSLSGIPARFSGSGSGTDFTLTISSLEPEDFAVYYCHQSSYLPFTFGPGTKVDIKRTVAAPSVFIFPPSDEQLKSGTASVVCLLNNFYPREAKVQWKVDNALQSGNSQESVTEQDSKDSTYSLESTLTLSKADYEKHKVYACEVTHQGLSSPVTKSFNRGEC", "heavy 2": "not shown"}, "B2": {"name": "iPS:454819 (bispecific antibody, human IgG1, kappa, lambda, N297G)", "light 1": "B1 light 1", "heavy 1": "B1 heavy 1", "light 2": "EIVLTQSPATLSLSPGERATLSCRASKSVGRSLHWYQQKPGQAPRLLIKYASQSLSGIPARFSGSGSGTDFTLTISSLEPEDFAVYYCHQSSRLPFTFGPGTKVDIKRTVAAPSVFIFPPSDEQLKSGTASVVCLLNNFYPREAKVQWKVDNALQSGNSQESVTEQDSKDSTYSLESTLTLSKADYEKHKVYACEVTHQGLSSPVTKSFNRGEC", "heavy 2": "not shown"}, "B3": {"name": "iPS:454823 (bispecific antibody, human IgG1, kappa, lambda, N297G)", "light 1": "B1 light 1", "heavy 1": "B1 heavy 1", "light 2": "B2 light 2", "heavy 2": "not shown"}, "B4": {"name": "iPS:454821 (bispecific antibody, human IgG1, kappa, lambda, N297G)", "light 1": "B1 light 1", "heavy 1": "B1 heavy 1", "light 2": "B2 light 2", "heavy 2": "not shown"}, "B5": {"name": "iPS:454813 (bispecific antibody, human IgG1, kappa, lambda, N297G)", "light 1": "B1 light 1", "heavy 1": "B1 heavy 1", "light 2": "B2 light 2", "heavy 2": "not shown"}, "B6": {"name": "iPS:454817 (bispecific antibody, human IgG1, kappa, lambda, N297G)", "light 1": "B1 light 1", "heavy 1": "B1 heavy 1", "light 2": "B2 light 2", "heavy 2": "not shown"}, "B7": {"name": "iPS:454815 (bispecific antibody, human IgG1, kappa, lambda, N297G)", "light 1": "B1 light 1", "heavy 1": "B1 heavy 1", "light 2": "B2 light 2", "heavy 2": "not shown"}},
  "key": {"human PAC1 receptor": {"molecular_target": "T1, human PAC1 receptor (human, UniProt P41586 24-468)", "T1 sequence": "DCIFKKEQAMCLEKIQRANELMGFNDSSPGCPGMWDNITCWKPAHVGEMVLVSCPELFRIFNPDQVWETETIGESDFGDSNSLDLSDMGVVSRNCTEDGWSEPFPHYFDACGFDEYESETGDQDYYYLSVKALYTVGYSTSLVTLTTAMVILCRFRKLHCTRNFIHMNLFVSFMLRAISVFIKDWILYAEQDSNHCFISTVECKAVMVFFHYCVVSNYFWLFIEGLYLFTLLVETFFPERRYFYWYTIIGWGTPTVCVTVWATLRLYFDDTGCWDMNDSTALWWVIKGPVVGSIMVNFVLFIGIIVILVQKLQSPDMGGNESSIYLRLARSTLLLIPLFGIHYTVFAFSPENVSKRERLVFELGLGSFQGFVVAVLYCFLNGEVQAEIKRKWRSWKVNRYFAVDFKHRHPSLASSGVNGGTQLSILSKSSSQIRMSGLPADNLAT", "assay": "cell-based or functional assay"}, "human CGRP receptor": {"molecular_target": "human CGRP receptor (human, UniProt Q16602 23-461; O60894 27-148)", "sequence (Q16602 23-461 limits assumed, chain 1 of 2)": "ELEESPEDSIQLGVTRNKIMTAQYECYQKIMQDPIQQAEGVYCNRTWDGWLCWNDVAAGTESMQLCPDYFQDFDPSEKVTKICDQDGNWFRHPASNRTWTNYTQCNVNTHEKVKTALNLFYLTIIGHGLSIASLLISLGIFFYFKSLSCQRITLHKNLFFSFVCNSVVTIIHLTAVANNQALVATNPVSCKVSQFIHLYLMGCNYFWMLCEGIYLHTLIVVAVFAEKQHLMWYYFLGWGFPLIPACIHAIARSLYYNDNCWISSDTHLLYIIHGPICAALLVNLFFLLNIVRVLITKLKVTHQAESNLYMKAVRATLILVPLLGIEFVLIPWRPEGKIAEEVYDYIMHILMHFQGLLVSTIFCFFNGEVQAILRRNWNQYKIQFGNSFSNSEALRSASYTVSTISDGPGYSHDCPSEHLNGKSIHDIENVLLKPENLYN", "sequence (O60894 27-148 limits assumed, chain 2 of 2)": "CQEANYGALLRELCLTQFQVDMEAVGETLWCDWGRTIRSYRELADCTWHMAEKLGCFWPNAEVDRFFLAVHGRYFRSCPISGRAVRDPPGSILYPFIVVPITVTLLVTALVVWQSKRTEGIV", "assay": "cell-based or functional assay"}},
  "data": [
    {"binder": "B1", "values": [
      {"measurement": "Fold-improvement over 29G4v22 Ab", "setting": "human PAC1 receptor", "value": 2.8, "unit": "fold"},
      {"measurement": "IC50", "setting": "human PAC1 receptor", "value": 2.85, "unit": "nM"},
      {"measurement": "Fold-improvement over 4E4 Ab", "setting": "human CGRP receptor", "value": 1, "unit": "fold"},
      {"measurement": "IC50", "setting": "human CGRP receptor", "value": 0.53, "unit": "nM"}
    ]},
    {"binder": "B2", "values": [
      {"measurement": "Fold-improvement over 29G4v22 Ab", "setting": "human PAC1 receptor", "value": 9.6, "unit": "fold"},
      {"measurement": "IC50", "setting": "human PAC1 receptor", "value": 0.69, "unit": "nM"},
      {"measurement": "Fold-improvement over 4E4 Ab", "setting": "human CGRP receptor", "value": 1.8, "unit": "fold"},
      {"measurement": "IC50", "setting": "human CGRP receptor", "value": 0.33, "unit": "nM"}
    ]},
    {"binder": "B3", "values": [
      {"measurement": "Fold-improvement over 29G4v22 Ab", "setting": "human PAC1 receptor", "value": 8.3, "unit": "fold"},
      {"measurement": "IC50", "setting": "human PAC1 receptor", "value": 0.8, "unit": "nM"},
      {"measurement": "Fold-improvement over 4E4 Ab", "setting": "human CGRP receptor", "value": 1.5, "unit": "fold"},
      {"measurement": "IC50", "setting": "human CGRP receptor", "value": 0.39, "unit": "nM"}
    ]},
    {"binder": "B4", "values": [
      {"measurement": "Fold-improvement over 29G4v22 Ab", "setting": "human PAC1 receptor", "value": 9.2, "unit": "fold"},
      {"measurement": "IC50", "setting": "human PAC1 receptor", "value": 0.72, "unit": "nM"},
      {"measurement": "Fold-improvement over 4E4 Ab", "setting": "human CGRP receptor", "value": 1.5, "unit": "fold"},
      {"measurement": "IC50", "setting": "human CGRP receptor", "value": 0.39, "unit": "nM"}
    ]},
    {"binder": "B5", "values": [
      {"measurement": "Fold-improvement over 29G4v22 Ab", "setting": "human PAC1 receptor", "value": 9.9, "unit": "fold"},
      {"measurement": "IC50", "setting": "human PAC1 receptor", "value": 0.81, "unit": "nM"},
      {"measurement": "Fold-improvement over 4E4 Ab", "setting": "human CGRP receptor", "value": 0.8, "unit": "fold"},
      {"measurement": "IC50", "setting": "human CGRP receptor", "value": 0.61, "unit": "nM"}
    ]},
    {"binder": "B6", "values": [
      {"measurement": "Fold-improvement over 29G4v22 Ab", "setting": "human PAC1 receptor", "value": 10.7, "unit": "fold"},
      {"measurement": "IC50", "setting": "human PAC1 receptor", "value": 0.62, "unit": "nM"},
      {"measurement": "Fold-improvement over 4E4 Ab", "setting": "human CGRP receptor", "value": 1.7, "unit": "fold"},
      {"measurement": "IC50", "setting": "human CGRP receptor", "value": 0.33, "unit": "nM"}
    ]},
    {"binder": "B7", "values": [
      {"measurement": "Fold-improvement over 29G4v22 Ab", "setting": "human PAC1 receptor", "value": 10.1, "unit": "fold"},
      {"measurement": "IC50", "setting": "human PAC1 receptor", "value": 0.65, "unit": "nM"},
      {"measurement": "Fold-improvement over 4E4 Ab", "setting": "human CGRP receptor", "value": 1.6, "unit": "fold"},
      {"measurement": "IC50", "setting": "human CGRP receptor", "value": 0.37, "unit": "nM"}
    ]}
  ]
}
